Assay: pH-stability profile of rhNRG-1 in pH 3 to 10 buffers and DI-water (RP-HPLC, SDS-PAGE)
Assay type: physicochemical
Details: for T90: time to degrade 10% of the initial concentration; for Rate of degradation: zero order, linear regression slope
Procedure: 2.1 Develop a RP-HPLC Method to Determine the Purity of rhNRG-1 Drug Substance.
RhNRG-1, batch 201204001, which contains 1.24 mg/mL rhNRG-1, 20 mM phosphate buffer and 0.5M NaCl, pH 5.5 (“API”) was used for the preparation of standard solution for all HPLC analysis.
In a 15 mL plastic tube, add the API and DI-water or a New Buffer. Mix into a solution containing 0.25 mg/mL rhNRG-1, 10 mM New Buffer, 4 mM phosphate (from the API) and 0.1 M NaCl (from the API).
For 40° C., test by SDS-PAGE after 10 days. Destain I (45% water, 45% methanol, 10% acetic acid, freshly made); 0.1% Coomasic Blue stain; The running gel (12%-15%) serves to separate individual polypeptides into discrete bands.
For 40° C., remove 150 μL and test by HPLC after 28.5, 49 and 77 hr.
For each Cone-vs-time profile, a linear regression analysis was performed and the slope of the regression equation was used to represent the rate of degradation in mg/mL/hr assuming zero order kinetics.
At each pH (3 to 8) and temperature, the estimated degradation rate and T90 (time to degrade 10% of the initial concentration or 0.025 mg/mL) are provided as follow (Table 10): […]

[1] = pH 5.63 (No New Buffer added), 40° C.
[2] = pH 5.63 (No New Buffer added), 60° C.

B1: rhNRG-1: proteins or peptides which consist of amino acid sequence of SEQ ID NO: 2 (protein, listed as Homo sapiens)
chain: SHLVKCAEKEKTFCVNGGECFMVKDLSNPSRYLCKCPNEFTGDRCQNYVMASFYKAEELYQ
Lower pH (3.2) vs original buffer (pH 5.5, as is)
  T90 at the lower pH relative to the one in its original buffer: about 20 ×
Lower pH (3.2) vs pH 4.2
  T90 at the lower pH relative to the one at pH 4.2: about 2 ×
pH 3 to 8 study, lowest pH
  pH of the best stability observed: 3.2
pH 3 to 10
  stability in solution depending on pH: more stable in acid solution (PH 3.0 to 7.0) than in basic solution (PH 8.0 to 10.0)
pH 3.19 (Sodium phosphate), 40° C., 28.5 hr
  % over initial conc.: 97%
pH 3.19 (Sodium phosphate), 40° C., 49 hr
  % over initial conc.: 97%
pH 3.19 (Sodium phosphate), 40° C., 77 hr
  % over initial conc.: 96%
pH 3.19 (Sodium phosphate), 60° C., 7.5 hr
  % over initial conc.: 98%
pH 3.19 (Sodium phosphate), 60° C., 24 hr
  % over initial conc.: 93%
pH 3.19 (Sodium phosphate), 60° C., 48 hr
  % over initial conc.: 89%
pH 3.19 (Sodium phosphate), 60° C., 65 hr
  % over initial conc.: 82%
pH 3.19 (Sodium phosphate), 60° C., 77 hr
  % over initial conc.: 72%
pH 3.19 (Sodium phosphate)
  Initial Conc: 0.241 mg/mL
pH 3.19, 40° C.
  T90: 10.4 days
  Rate of degradation: 0.0001 mg/mL/h
pH 3.19, 60° C.
  T90: 1.7 days
  Rate of degradation: 0.0006 mg/mL/h
pH 4.17 (Sodium acetate), 40° C., 28.5 hr
  % over initial conc.: 97%
pH 4.17 (Sodium acetate), 40° C., 49 hr
  % over initial conc.: 97%
pH 4.17 (Sodium acetate), 40° C., 77 hr
  % over initial conc.: 93%
pH 4.17 (Sodium acetate), 60° C., 7.5 hr
  % over initial conc.: 99%
pH 4.17 (Sodium acetate), 60° C., 24 hr
  % over initial conc.: 93%
pH 4.17 (Sodium acetate), 60° C., 48 hr
  % over initial conc.: 91%
pH 4.17 (Sodium acetate), 60° C., 65 hr
  % over initial conc.: 84%
pH 4.17 (Sodium acetate), 60° C., 77 hr
  % over initial conc.: 78%
pH 4.17 (Sodium acetate)
  Initial Conc: 0.247 mg/mL
pH 4.17, 40° C.
  T90: 5.2 days
  Rate of degradation: 0.0002 mg/mL/h
pH 4.17, 60° C.
  T90: 1.7 days
  Rate of degradation: 0.0006 mg/mL/h
pH 5.08 (Sodium acetate), 40° C., 28.5 hr
  % over initial conc.: 94%
pH 5.08 (Sodium acetate), 40° C., 49 hr
  % over initial conc.: 94%
pH 5.08 (Sodium acetate), 40° C., 77 hr
  % over initial conc.: 86%
pH 5.08 (Sodium acetate), 60° C., 7.5 hr
  % over initial conc.: 98%
pH 5.08 (Sodium acetate), 60° C., 24 hr
  % over initial conc.: 92%
pH 5.08 (Sodium acetate), 60° C., 48 hr
  % over initial conc.: 93%
pH 5.08 (Sodium acetate), 60° C., 65 hr
  % over initial conc.: 82%
pH 5.08 (Sodium acetate), 60° C., 77 hr
  % over initial conc.: 82%
pH 5.08 (Sodium acetate)
  Initial Conc: 0.242 mg/mL
pH 5.08, 40° C.
  T90: 2.6 days
  Rate of degradation: 0.0004 mg/mL/h
pH 5.08, 60° C.
  T90: 1.7 days
  Rate of degradation: 0.0006 mg/mL/h
pH 5.47 (Histidine), 60° C., 7.5 hr
  % over initial conc.: 95%
pH 5.47 (Histidine), 60° C., 24 hr
  % over initial conc.: 92%
pH 5.47 (Histidine), 60° C., 48 hr
  % over initial conc.: 86%
pH 5.47 (Histidine), 60° C., 65 hr
  % over initial conc.: 79%
pH 5.47 (Histidine), 60° C., 77 hr
  % over initial conc.: 79%
pH 5.47 (Histidine)
  Initial Conc: 0.248 mg/mL
pH 5.47, 60° C.
  T90: 1.5 days
  Rate of degradation: 0.0007 mg/mL/h
pH 5.63 (No New Buffer added), 40° C., 28.5 hr
  % over initial conc.: 92%
pH 5.63 (No New Buffer added), 40° C., 49 hr
  % over initial conc.: 91%
pH 5.63 (No New Buffer added), 40° C., 77 hr
  % over initial conc.: 38%
[1]
  T90: 0.5 days
  Rate of degradation: 0.0019 mg/mL/h
pH 5.63 (No New Buffer added), 60° C., 7.5 hr
  % over initial conc.: 95%
pH 5.63 (No New Buffer added), 60° C., 24 hr
  % over initial conc.: 84%
pH 5.63 (No New Buffer added), 60° C., 48 hr
  % over initial conc.: 82%
pH 5.63 (No New Buffer added), 60° C., 65 hr
  % over initial conc.: 69%
pH 5.63 (No New Buffer added), 60° C., 77 hr
  % over initial conc.: 64%
[2]
  T90: 1.0 days
  Rate of degradation: 0.001 mg/mL/h
pH 5.63 (No New Buffer added)
  Initial Conc: 0.251 mg/mL
pH 6.02 (Sodium citrate), 40° C., 28.5 hr
  % over initial conc.: 94%
pH 6.02 (Sodium citrate), 40° C., 49 hr
  % over initial conc.: 94%
pH 6.02 (Sodium citrate), 40° C., 77 hr
  % over initial conc.: 86%
pH 6.02 (Sodium citrate), 60° C., 7.5 hr
  % over initial conc.: 95%
pH 6.02 (Sodium citrate), 60° C., 24 hr
  % over initial conc.: 88%
pH 6.02 (Sodium citrate), 60° C., 48 hr
  % over initial conc.: 85%
pH 6.02 (Sodium citrate), 60° C., 65 hr
  % over initial conc.: 72%
pH 6.02 (Sodium citrate), 60° C., 77 hr
  % over initial conc.: 72%
pH 6.02 (Sodium citrate)
  Initial Conc: 0.251 mg/mL
pH 6.02, 40° C.
  T90: 2.6 days
  Rate of degradation: 0.0004 mg/mL/h
pH 6.02, 60° C.
  T90: 1.2 days
  Rate of degradation: 0.0009 mg/mL/h
pH 7.00 (Sodium phosphate), 40° C., 28.5 hr
  % over initial conc.: 92%
pH 7.00 (Sodium phosphate), 40° C., 49 hr
  % over initial conc.: 87%
pH 7.00 (Sodium phosphate), 40° C., 77 hr
  % over initial conc.: 82%
pH 7.00 (Sodium phosphate), 60° C., 7.5 hr
  % over initial conc.: 90%
pH 7.00 (Sodium phosphate), 60° C., 24 hr
  % over initial conc.: 76%
pH 7.00 (Sodium phosphate), 60° C., 48 hr
  % over initial conc.: 65%
pH 7.00 (Sodium phosphate)
  Initial Conc: 0.251 mg/mL
pH 7.00, 40° C.
  T90: 1.7 days
  Rate of degradation: 0.0006 mg/mL/h
pH 7.00, 60° C.
  T90: 0.7 days
  Rate of degradation: 0.0015 mg/mL/h
pH 8.07 (Sodium bicarbonate), 40° C., 28.5 hr
  % over initial conc.: 89%
pH 8.07 (Sodium bicarbonate), 40° C., 49 hr
  % over initial conc.: 83%
pH 8.07 (Sodium bicarbonate), 40° C., 77 hr
  % over initial conc.: 68%
pH 8.07 (Sodium bicarbonate), 60° C., 7.5 hr
  % over initial conc.: 68%
pH 8.07 (Sodium bicarbonate), 60° C., 24 hr
  % over initial conc.: 4%
pH 8.07 (Sodium bicarbonate)
  Initial Conc: 0.253 mg/mL
pH 8.07, 40° C.
  T90: 1.0 days
  Rate of degradation: 0.001 mg/mL/h
pH 8.07, 60° C.
  T90: 0.2 days
  Rate of degradation: 0.0061 mg/mL/h
